Test results: the supplement of paper PMC12764529
± gives the half width of the 95% confidence interval.

Test: folding stability dG unfold from trypsin proteolysis; higher = more stable
How it was run: (§1)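 Designed mini-proteins (under 80 residues, no cysteine) in a PA-tagged cDNA display construct were digested with trypsin and chymotrypsin. Each protease was used at 11 concentrations (threefold dilutions) plus a no-protease condition, followed by sequencing. K50 was inferred by Bayesian fitting of sequencing counts, and unfolding free energy was derived against a sequence-predicted unfolded-state K50 and a shared folded-state K50, per protease or combined. Only designs with AlphaFold2 dimer inter-PAE above 15 were kept.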

In order of falling “folding stability dG unfold” value:
1. SAGGIEEAIKEGKTVIIRVKVIDKETGKEYERTIEVPANEEISLEELLKALLPPGYEVEIEVVELEPSAGGS [r8_127_TrROS_Hall]  3.78 ± 0.33 kcal/mol
2. SPPFKIKEIKIEIFPNGTVKIEYRFPSSGHYVKFSIPVDPKKGRIPINMEIYNPDNGKVWEFSATIRIKKSA [r9_825_TrROS]  3.34 ± 0.17 kcal/mol
3. SAGGSAGGSAGMDKDGKWRRIPFMFVNPGDGYIFKWEIWIYPGGNIELEMEIIGPIKPGASAGGSAGGSAGG [r11_226_TrROS]  3.13 ± 0.13 kcal/mol
4. SAPWRITDIDVKRHPNGRVRVTIRFPHPNMSVEIWLDKDGELDVEVSPDMRNHPPWFQNMIRDVAKELLSAG [r14_555_TrROS]  2.77 ± 0.1 kcal/mol
5. SAGGSAGGSAGLTLRVKVKVELEYDPETNELTLRVEVEIELFPPPPLVVLSKEQLEELEESAGGSAGGSAGG [r17_454_TrROS_Hall]  2.67 ± 0.18 kcal/mol
6. SDWHYIQIPFEITFKAPPEQARQFVEDLAENLGITDINVDNIEYDPNNGEVKVKVSISIMIPPPPPPEDDSA [r9_918_TrROS]  2.36 ± 0.15 kcal/mol
7. SAGGFTIEELAEKFPNVEVYVQRFGNKYLIQFEFEDKDRKYQVVIKYDGPGKIDIKVMPPNQDAEEALSAGG [r13_859_TrROS]  2.1 ± 0.069 kcal/mol
8. SKKTVYRIVIELENGEKLEIEVPLGSEVKIEKKEDGTITITVNGKKIEIKLKPGEKAKIVKIEKLPEEEESA [r9_773_TrROS_Hall]  2.1 ± 0.13 kcal/mol
9. KTIEIWIPMPMGQAETFVKSLARKLGLPPDDYKVDNVEMQPNKDGWPYVKMEIKLPNNGKEIEIIMPPGWFS [r1_21_TrROS]  1.67 ± 0.061 kcal/mol
10. SAGGSAGGSATVTVTETNEDGEETTTEVEVFEVKPPPAPVLKVEAVIDPETNELVDVKVELFASAGGSAGGS [r12_539_TrROS_Hall]  1.36 ± 0.1 kcal/mol
11. SMVEKLPDGTTVIKGELPLDVSIEDVLAKLPDLKLASRTSETDPATGKRYYTFIVKPDGTVDVTSEPKLLSA [r9_238_JUSTAS]  0.645 ± 0.027 kcal/mol
12. SAGGSAGGSASMGVVDEFVVYVPGEKGEEVEVKVYKDPNSDRYIVEIKGKKIPVTDEKKALLSAGGSAGGSA [r18_67_JUSTAS]  0.41 ± 0.068 kcal/mol
13. SAGGSAGGSANYMIKITIEYTPPNGKKEEVEVTVPGMPIDQLLNNLPPEYPVEIKDIEIYPGSAGGSAGGSA [r18_32_TrROS]  0.251 ± 0.024 kcal/mol
14. SAGGSEEFELEFRVEAASPEEAEALAEEIRKRLEDLGLDVEVEAETLEPGAVVVRPRVRVDPETGRLDSAGG [r13_697_TrMRF]  0.126 ± 0.24 kcal/mol
15. SAGGSAGGSAGGGMMLAEFLKYDPRNPTATVVSVRTFSDPEEARAEAEKRGLLVRVIEPSAGGSAGGSAGGS [r10_657_JUSTAS]  -0.45 ± 0.28 kcal/mol
16. SAGGMVTVSTPLGLGYSEEIKARMEEYVKAGDPEAAKELAQEYIDAKYPPKWPVEISFHENPAISKKSAGGS [r8_48_JUSTAS]  -0.769 ± 0.38 kcal/mol
17. SAGGSAGGSASMNVLVVRTKPDGTPEVTEVETGDPEKAKEEIAKRSNVTTPEGTVTVELTGVSAGGSAGGSA [r18_457_JUSTAS]  -1.02 ± 0.13 kcal/mol

Test: folding stability dG unfold from chymotrypsin proteolysis; higher = more stable
How it was run: as §1

In order of falling “folding stability dG unfold” value:
1. SPPFKIKEIKIEIFPNGTVKIEYRFPSSGHYVKFSIPVDPKKGRIPINMEIYNPDNGKVWEFSATIRIKKSA [r9_825_TrROS]  4.86 ± 0.077 kcal/mol
2. SAGGSAGGSAGMDKDGKWRRIPFMFVNPGDGYIFKWEIWIYPGGNIELEMEIIGPIKPGASAGGSAGGSAGG [r11_226_TrROS]  4.8 ± 0.061 kcal/mol
3. SAGGSAGGSAGLTLRVKVKVELEYDPETNELTLRVEVEIELFPPPPLVVLSKEQLEELEESAGGSAGGSAGG [r17_454_TrROS_Hall]  3.65 ± 0.24 kcal/mol
4. SDWHYIQIPFEITFKAPPEQARQFVEDLAENLGITDINVDNIEYDPNNGEVKVKVSISIMIPPPPPPEDDSA [r9_918_TrROS]  3.36 ± 0.12 kcal/mol
5. SAGGFTIEELAEKFPNVEVYVQRFGNKYLIQFEFEDKDRKYQVVIKYDGPGKIDIKVMPPNQDAEEALSAGG [r13_859_TrROS]  3.094 ± 0.019 kcal/mol
6. SAGGIEEAIKEGKTVIIRVKVIDKETGKEYERTIEVPANEEISLEELLKALLPPGYEVEIEVVELEPSAGGS [r8_127_TrROS_Hall]  3.03 ± 0.51 kcal/mol
7. KTIEIWIPMPMGQAETFVKSLARKLGLPPDDYKVDNVEMQPNKDGWPYVKMEIKLPNNGKEIEIIMPPGWFS [r1_21_TrROS]  2.6 ± 0.059 kcal/mol
8. SKKTVYRIVIELENGEKLEIEVPLGSEVKIEKKEDGTITITVNGKKIEIKLKPGEKAKIVKIEKLPEEEESA [r9_773_TrROS_Hall]  2.48 ± 0.064 kcal/mol
9. SAPWRITDIDVKRHPNGRVRVTIRFPHPNMSVEIWLDKDGELDVEVSPDMRNHPPWFQNMIRDVAKELLSAG [r14_555_TrROS]  1.33 ± 0.11 kcal/mol
10. SAGGSEEFELEFRVEAASPEEAEALAEEIRKRLEDLGLDVEVEAETLEPGAVVVRPRVRVDPETGRLDSAGG [r13_697_TrMRF]  1.29 ± 0.065 kcal/mol
11. SMVEKLPDGTTVIKGELPLDVSIEDVLAKLPDLKLASRTSETDPATGKRYYTFIVKPDGTVDVTSEPKLLSA [r9_238_JUSTAS]  1.21 ± 0.091 kcal/mol
12. SAGGSAGGSATVTVTETNEDGEETTTEVEVFEVKPPPAPVLKVEAVIDPETNELVDVKVELFASAGGSAGGS [r12_539_TrROS_Hall]  0.201 ± 0.14 kcal/mol
13. SAGGSAGGSANYMIKITIEYTPPNGKKEEVEVTVPGMPIDQLLNNLPPEYPVEIKDIEIYPGSAGGSAGGSA [r18_32_TrROS]  0.154 ± 0.12 kcal/mol
14. SAGGSAGGSASMGVVDEFVVYVPGEKGEEVEVKVYKDPNSDRYIVEIKGKKIPVTDEKKALLSAGGSAGGSA [r18_67_JUSTAS]  0.0997 ± 0.33 kcal/mol
15. SAGGSAGGSAGGGMMLAEFLKYDPRNPTATVVSVRTFSDPEEARAEAEKRGLLVRVIEPSAGGSAGGSAGGS [r10_657_JUSTAS]  0.0192 ± 0.16 kcal/mol
16. SAGGMVTVSTPLGLGYSEEIKARMEEYVKAGDPEAAKELAQEYIDAKYPPKWPVEISFHENPAISKKSAGGS [r8_48_JUSTAS]  -0.209 ± 0.18 kcal/mol
17. SAGGSAGGSASMNVLVVRTKPDGTPEVTEVETGDPEKAKEEIAKRSNVTTPEGTVTVELTGVSAGGSAGGSA [r18_457_JUSTAS]  -1.06 ± 0.27 kcal/mol

Test: folding stability dG unfold (combined trypsin and chymotrypsin); higher = more stable
How it was run: as §1

In order of rising “folding stability dG unfold” value:
1. SAGGSAGGSASMNVLVVRTKPDGTPEVTEVETGDPEKAKEEIAKRSNVTTPEGTVTVELTGVSAGGSAGGSA [r18_457_JUSTAS]  -0.961 ± 0.46 kcal/mol
2. SAGGMVTVSTPLGLGYSEEIKARMEEYVKAGDPEAAKELAQEYIDAKYPPKWPVEISFHENPAISKKSAGGS [r8_48_JUSTAS]  -0.396 ± 0.36 kcal/mol
3. SAGGSAGGSAGGGMMLAEFLKYDPRNPTATVVSVRTFSDPEEARAEAEKRGLLVRVIEPSAGGSAGGSAGGS [r10_657_JUSTAS]  -0.111 ± 0.1 kcal/mol
4. SAGGSAGGSANYMIKITIEYTPPNGKKEEVEVTVPGMPIDQLLNNLPPEYPVEIKDIEIYPGSAGGSAGGSA [r18_32_TrROS]  0.326 ± 0.11 kcal/mol
5. SAGGSAGGSASMGVVDEFVVYVPGEKGEEVEVKVYKDPNSDRYIVEIKGKKIPVTDEKKALLSAGGSAGGSA [r18_67_JUSTAS]  0.447 ± 0.26 kcal/mol
6. SAGGSAGGSATVTVTETNEDGEETTTEVEVFEVKPPPAPVLKVEAVIDPETNELVDVKVELFASAGGSAGGS [r12_539_TrROS_Hall]  0.784 ± 0.14 kcal/mol
7. SAGGSEEFELEFRVEAASPEEAEALAEEIRKRLEDLGLDVEVEAETLEPGAVVVRPRVRVDPETGRLDSAGG [r13_697_TrMRF]  0.956 ± 0.16 kcal/mol
8. SMVEKLPDGTTVIKGELPLDVSIEDVLAKLPDLKLASRTSETDPATGKRYYTFIVKPDGTVDVTSEPKLLSA [r9_238_JUSTAS]  0.957 ± 0.045 kcal/mol
9. SAPWRITDIDVKRHPNGRVRVTIRFPHPNMSVEIWLDKDGELDVEVSPDMRNHPPWFQNMIRDVAKELLSAG [r14_555_TrROS]  2.15 ± 0.1 kcal/mol
10. KTIEIWIPMPMGQAETFVKSLARKLGLPPDDYKVDNVEMQPNKDGWPYVKMEIKLPNNGKEIEIIMPPGWFS [r1_21_TrROS]  2.38 ± 0.23 kcal/mol
11. SKKTVYRIVIELENGEKLEIEVPLGSEVKIEKKEDGTITITVNGKKIEIKLKPGEKAKIVKIEKLPEEEESA [r9_773_TrROS_Hall]  2.52 ± 0.23 kcal/mol
12. SDWHYIQIPFEITFKAPPEQARQFVEDLAENLGITDINVDNIEYDPNNGEVKVKVSISIMIPPPPPPEDDSA [r9_918_TrROS]  2.73 ± 0.2 kcal/mol
13. SAGGFTIEELAEKFPNVEVYVQRFGNKYLIQFEFEDKDRKYQVVIKYDGPGKIDIKVMPPNQDAEEALSAGG [r13_859_TrROS]  2.8 ± 0.072 kcal/mol
14. SAGGSAGGSAGLTLRVKVKVELEYDPETNELTLRVEVEIELFPPPPLVVLSKEQLEELEESAGGSAGGSAGG [r17_454_TrROS_Hall]  3.21 ± 0.39 kcal/mol
15. SAGGIEEAIKEGKTVIIRVKVIDKETGKEYERTIEVPANEEISLEELLKALLPPGYEVEIEVVELEPSAGGS [r8_127_TrROS_Hall]  3.65 ± 0.4 kcal/mol
16. SAGGSAGGSAGMDKDGKWRRIPFMFVNPGDGYIFKWEIWIYPGGNIELEMEIIGPIKPGASAGGSAGGSAGG [r11_226_TrROS]  4.28 ± 0.11 kcal/mol
17. SPPFKIKEIKIEIFPNGTVKIEYRFPSSGHYVKFSIPVDPKKGRIPINMEIYNPDNGKVWEFSATIRIKKSA [r9_825_TrROS]  4.69 ± 0.2 kcal/mol
